Results from article PMC7597677.

Target: cGMP phosphodiesterase 6 (PDE6) hetero-tetramer, native bovine (bovine) (UniProt P11541)
Assay: cryo-EM structure

Chain of UniProt P11541 (P11541 whole entry, chain 1 of 3): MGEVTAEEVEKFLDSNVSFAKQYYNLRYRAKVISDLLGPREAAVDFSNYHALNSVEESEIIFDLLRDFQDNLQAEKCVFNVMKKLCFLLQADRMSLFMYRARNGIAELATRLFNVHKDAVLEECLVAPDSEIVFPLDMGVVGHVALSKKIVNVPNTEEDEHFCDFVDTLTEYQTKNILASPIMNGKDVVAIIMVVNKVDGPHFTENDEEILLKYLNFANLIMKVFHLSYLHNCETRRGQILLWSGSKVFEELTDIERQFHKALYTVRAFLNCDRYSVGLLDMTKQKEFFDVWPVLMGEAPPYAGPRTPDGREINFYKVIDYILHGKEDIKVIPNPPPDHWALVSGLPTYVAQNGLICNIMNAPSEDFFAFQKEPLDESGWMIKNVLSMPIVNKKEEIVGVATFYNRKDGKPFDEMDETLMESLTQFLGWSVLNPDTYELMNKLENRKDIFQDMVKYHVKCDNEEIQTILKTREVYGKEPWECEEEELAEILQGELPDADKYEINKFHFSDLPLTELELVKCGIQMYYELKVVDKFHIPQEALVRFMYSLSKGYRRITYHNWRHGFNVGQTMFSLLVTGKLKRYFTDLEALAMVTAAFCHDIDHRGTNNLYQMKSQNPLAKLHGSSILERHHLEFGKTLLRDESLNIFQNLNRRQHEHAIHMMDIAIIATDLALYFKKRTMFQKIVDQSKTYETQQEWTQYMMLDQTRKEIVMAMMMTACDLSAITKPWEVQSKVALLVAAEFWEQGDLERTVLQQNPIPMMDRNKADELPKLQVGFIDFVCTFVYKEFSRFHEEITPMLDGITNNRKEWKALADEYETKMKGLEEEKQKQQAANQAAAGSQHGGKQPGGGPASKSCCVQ
Chain of UniProt P11541 (P23439 whole entry, chain 2 of 3, further chain): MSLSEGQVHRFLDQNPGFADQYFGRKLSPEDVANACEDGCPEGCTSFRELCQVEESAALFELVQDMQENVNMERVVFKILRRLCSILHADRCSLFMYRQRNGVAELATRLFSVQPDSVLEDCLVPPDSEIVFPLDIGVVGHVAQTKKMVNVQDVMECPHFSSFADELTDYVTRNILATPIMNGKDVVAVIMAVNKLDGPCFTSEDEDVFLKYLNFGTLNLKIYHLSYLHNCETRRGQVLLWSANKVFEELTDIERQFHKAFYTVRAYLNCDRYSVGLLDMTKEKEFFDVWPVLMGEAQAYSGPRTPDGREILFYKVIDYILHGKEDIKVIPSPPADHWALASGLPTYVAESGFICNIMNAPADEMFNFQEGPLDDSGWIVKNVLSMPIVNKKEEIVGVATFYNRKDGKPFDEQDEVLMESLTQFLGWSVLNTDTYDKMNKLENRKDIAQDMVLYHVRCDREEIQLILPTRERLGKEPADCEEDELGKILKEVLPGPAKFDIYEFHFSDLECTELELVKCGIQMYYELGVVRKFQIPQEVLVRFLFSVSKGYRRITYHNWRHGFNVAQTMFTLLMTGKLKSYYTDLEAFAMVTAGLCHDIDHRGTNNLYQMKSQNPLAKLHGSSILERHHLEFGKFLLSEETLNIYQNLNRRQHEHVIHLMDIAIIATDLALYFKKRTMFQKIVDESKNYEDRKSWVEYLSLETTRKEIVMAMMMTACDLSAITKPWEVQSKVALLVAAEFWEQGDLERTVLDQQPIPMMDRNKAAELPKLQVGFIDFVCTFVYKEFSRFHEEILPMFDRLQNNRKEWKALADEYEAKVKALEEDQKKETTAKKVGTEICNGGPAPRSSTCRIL
Chain of UniProt P11541 (P04972 whole entry, chain 3 of 3, further chain): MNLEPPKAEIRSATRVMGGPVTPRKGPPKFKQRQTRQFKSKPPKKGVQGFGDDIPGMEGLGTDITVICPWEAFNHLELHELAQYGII

stoichiometry N (GαT·GTP per PDE6 hetero-tetramer): 2
Substance: 1D4-tagged recombinant GαT subunit (R174C, Q200L), GTP-bound (from UniProt P04695 1-350) (natural protein)
